Substrate in data set [1]: O=c1cc(-c2ccccc2)oc2c(O)c(O)ccc12
Description: HPLC glucosylation assay, Lineweaver-Burk. Format: biochemical, Ornithogalum saundersiae. Conditions: 1 mM UDP-Glc fixed; 7,8-dihydroxyflavone 0-1 mM. The source says:
(§1) HPLC glucosylation assay, Lineweaver-Burk on OsUGT1

Substrate in data set [2]: O=C1/C(=C/c2ccc(O)c(O)c2)Oc2cc(O)ccc21
Description: HPLC glucosylation assay, Lineweaver-Burk. Format: biochemical, Ornithogalum saundersiae. Conditions: 1 mM UDP-Glc fixed; sulfuretin 0-1 mM.
Text: as §1

The term Km denotes the concentration of substrate that gives half-maximal velocity. The term Vmax denotes the top rate of the reaction or transport when substrate is in excess.

B1: OsUGT1 (Ornithogalum saundersiae) (protein)
chain: MEGKKQHVVLFPFMGQGHITPFLLLAELIHEYYPDYTITLVNTPLNIRNLQSSLPPGSKINLKSLPFDASSHGLPPDTENTKAIPFHLFINLFRASETLEPAFERLIAGITEEDGIPPLCIIADNFFSWTLHIARKFGVFHSTFLTSGAYGSALLFSLWKYLPHRNAYSDEFSLPDFPEIRLHHTQLSNILVVADGGDAWSVLLRRLNELCTRSDAVLVNTVKEFEARGLSMLREQLQGPIFPVGPLLCTSASHSMGMDLSDWLDSQPSASVLYVSFGSQNTIRASQMLKLAMALEATSRPFIWVIRPPVGFDVRVQFKSEWLPEGFEDRMRGTKQGFIVHQWAPQVEILSHPSTGAFLSHCGWNSVLESLVHGVPIIGWPLSAEQFYNSKFLMEEVGVCVEAARGNRESSEVKKEEVERAIEIVMDNEEIRRKAKETARVLKSALKEEENNTNVGSSLRGLKEFFQTALSKRVVT
In the case of B1, the values for the Km in data set [1] and in data set [2] were 713 ± 69 µM and 159 ± 11 µM, respectively. The results for the maximal velocity (Vmax) in data set [1] and in data set [2] were 28.3 µM/min and 3.47 µM/min, respectively.

For the origin of these results see publication PMC6071076, “Transcriptome-Wide Identification of an Aurone Glycosyltransferase with Glycosidase Activity from Ornithogalum saundersiae” (Genes, 2018).
